# From patent US20200354449A1 (NBE THERAPEUTICS, published 2020)
# Columns and labels:
# mouse ROR2-TwinStrep [1] = target: T1, mouse ROR2-TwinStrep (mouse, UniProt Q9Z138 34-403); assay: ELISA, panel 'Coating: Mouse ROR2' (mouse ROR2-TwinStrep 2 µg/mL), 3-fold dilution series of antibody, HRP anti-human IgG, OD 490 nm
# T1 construct: also called mROR2; murine ROR2; not shown: TwinStrep tag
# Procedure: (§1) Binding of antibodies to hROR2, mouse ROR2 (mROR2) and cynomolgus ROR2 (cROR2) was evaluated in an ELISA-based assay. For this, ELISA plates were coated with 50 μL of 2 μg/ml, in sodium bicarbonate coating buffer (0.1M Na₂CO₃, 0.1M NaHCO₃, pH 9.6), of: (a) an anti-human Fc (Jackson Immunoresearch, 109-006-098), (b) hROR2-TwinStrep, (c) cynomolgus ROR2-TwinStrep or (d) mouse ROR2-TwinStrep. Following 1-2-days incubation at 4° C., plates were washed with PBS supplemented with 0.05% (v/v) of Tween 20 and blocked with 150 μL of PBS supplemented with 0.05% (v/v) of Tween 20 and 3% of bovine serum albumin (BSA). Thereafter, 3-fold or 4-fold dilutions of purified antibodies starting at 0.5 or 2 μg/ml, respectively, in PBS supplemented with 1% (w/v) bovine serum albumin (BSA) and 0.05% (v/v) of Tween 20 were added. Following 1 h incubation at 37° C., plates were washed with PBS supplemented with 0.05% (v/v) of Tween 20 prior to addition of HRP-conjugated anti-human IgG (Jackson Immunoresearch, 109-036-008). Following further plate washing, plates were developed with 50 μL of Sigmafast OPD Tablet set (Sigma, P9187) and the reaction stopped by addition of 2M sulfuric acid. Plates were read on an ELISA plate reader (OD 490).
# mouse ROR2-TwinStrep [2] = target: T1, mouse ROR2-TwinStrep; assay: ELISA, panel 'mouse ROR2' (mouse ROR2-TwinStrep 2 µg/mL coated), 4-fold dilutions of purified antibody from 2000 ng/mL, HRP anti-human IgG, OD 490 nm
# Procedure: as §1
# T1 sequence (Q9Z138 34-403 V372M): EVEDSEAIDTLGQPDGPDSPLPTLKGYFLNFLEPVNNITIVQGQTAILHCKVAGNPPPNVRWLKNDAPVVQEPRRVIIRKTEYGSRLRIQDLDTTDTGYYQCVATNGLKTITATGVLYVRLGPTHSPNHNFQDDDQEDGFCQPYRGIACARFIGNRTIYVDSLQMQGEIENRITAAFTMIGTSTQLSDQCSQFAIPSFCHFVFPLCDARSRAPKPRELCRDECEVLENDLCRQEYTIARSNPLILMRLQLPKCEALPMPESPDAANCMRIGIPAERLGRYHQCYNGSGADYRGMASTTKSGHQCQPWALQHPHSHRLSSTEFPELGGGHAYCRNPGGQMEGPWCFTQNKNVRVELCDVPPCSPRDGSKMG
binding result (mouse ROR2-TwinStrep [1]),binding result (mouse ROR2-TwinStrep [2]),Binder
no binding,,"GK-6B10 (antibody, human IgG1, Human IgG1/kappa; the molecule is assigned by the clone name; not shown: Strep tag) heavy: not shown light: DIVMTQSPSTLSASVGDRVTITCRASQSIDNWLAWYQQKPGKAPKVLIYKASSLESGVPSRFSGSGSGTEFTLTISSLQPDDFATYYCQQYNSYSYTFGQGTKLEIKRTVAAPSVFIFPPSDEQLKSGTASVVCLLNNFYPREAKVQWKVDNALQSGNSQESVTEQDSKDSTYSLSSTLTLSKADYEKHKVYACEVTHQGLSSPVTKSFNRGECGGGGGSLPETG"
no binding,,"MK-7C3 (antibody, human IgG1, Human IgG1/kappa; the molecule is assigned by the clone name; not shown: Strep tag) heavy: not shown light: AIRMTQSPSTLSASVGDRVTITCRASQTISNWLAWFQQKPGKAPKVLIYKASSLESGVPSRFSGSGSGTEFTLTISSLQPDDFASYYCQQYNSYSYTFGQGTRLEIKRTVAAPSVFIFPPSDEQLKSGTASVVCLLNNFYPREAKVQWKVDNALQSGNSQESVTEQDSKDSTYSLSSTLTLSKADYEKHKVYACEVTHQGLSSPVTKSFNRGECGGGGGSLPETG"
,no binding (tested: 2000 ng/mL),"GK-22G12 (mAb418) (antibody, human IgG1, Human IgG1/kappa; The light chain tag is printed G5LPETG, perhaps a misprint of G5SLPETG; also called MK-22G12; not shown: TwinStrep tag) heavy: not shown light: DIVMTQSPSSLSASVGDRVTITCRASQGISNYLAWYQQKPGKVPKLLIYAASTLQSGVPSRFSGSGSGTDFTLTISSLQPEDVSTYYCQKHNRAPWTFGQGTKLEIKRTVAAPSVFIFPPSDEQLKSGTASVVCLLNNFYPREAKVQWKVDNALQSGNSQESVTEQDSKDSTYSLSSTLTLSKADYEKHKVYACEVTHQGLSSPVTKSFNRGECGGGGGLPETG"
binds,,"GK-5A1 (mAb271) (antibody, human IgG1, Human IgG1/kappa; not shown: Strep tag) heavy: not shown light: EIVLTQSPSTLSASVGDRVTITCRASQSISSWLAWYQQKPGKAPKLLIYKASSLESGVPSRFSGSGSGTEFTLTISSLQPDDFATYYCQQYNSYWTFGQGTKVDIKRTVAAPSVFIFPPSDEQLKSGTASVVCLLNNFYPREAKVQWKVDNALQSGNSQESVTEQDSKDSTYSLSSTLTLSKADYEKHKVYACEVTHQGLSSPVTKSFNRGECGGGGGSLPETG"
no binding,,"GK-1E5 (mAb270) (antibody, human IgG1, Human IgG1/kappa; not shown: Strep tag) heavy: not shown light: DIQLTQSPSTLSASVGDRVTITCRASQSISSWLAWYQQKPGKAPKLLIYKASSLESGVPSRFSGSGSGTEFTLTISSLQPDDFATYYCQQYNNYWTFGQGTKVEIKRTVAAPSVFIFPPSDEQLKSGTASVVCLLNNFYPREAKVQWKVDNALQSGNSQESVTEQDSKDSTYSLSSTLTLSKADYEKHKVYACEVTHQGLSSPVTKSFNRGECGGGGGSLPETG"
no binding,,"MK-3B12 (mAb272) (antibody, human IgG1, Human IgG1/kappa; not shown: Strep tag) heavy: not shown light: DIVMTQSPSTLSASVGDRVTITCRASQSISSWLAWYQQKPGKAPKLLIYKASSLESGVPSRFSGSGSGTEFTLTISSLQPDDFATYYCQQYNNYWTFGQGTKVEIKRTVAAPSVFIFPPSDEQLKSGTASVVCLLNNFYPREAKVQWKVDNALQSGNSQESVTEQDSKDSTYSLSSTLTLSKADYEKHKVYACEVTHQGLSSPVTKSFNRGECGGGGGSLPETG"
no binding,,"GK-2G8 (antibody, human IgG1, Human IgG1/kappa; the molecule is assigned by the clone name; not shown: Strep tag) heavy: not shown light: EIVMTQSPSTLSASVGDRVTITCRASQSISSWLAWYQQKPGKAPKLLIYKASSLESGVPSRFSGSGSGTEFTLTISSLQPDDFATYYCQQYNNYWTFGQGTKVDIKRTVAAPSVFIFPPSDEQLKSGTASVVCLLNNFYPREAKVQWKVDNALQSGNSQESVTEQDSKDSTYSLSSTLTLSKADYEKHKVYACEVTHQGLSSPVTKSFNRGECGGGGGSLPETG"
no binding,,"GK-5G12 (antibody, human IgG1, Human IgG1/kappa; the molecule is assigned by the clone name; not shown: Strep tag) heavy: not shown light: EIVLTQSPSSLSASVGDRVTITCRASQGISNYLAWYQQKPGKVPKLLIYAASTLQSGVPSRFSGSGSGTDFTLTISSLQPEDVATYYCQKYNSAPYTFGQGTKLEIKRTVAAPSVFIFPPSDEQLKSGTASVVCLLNNFYPREAKVQWKVDNALQSGNSQESVTEQDSKDSTYSLSSTLTLSKADYEKHKVYACEVTHQGLSSPVTKSFNRGECGGGGGSLPETG"
,no binding (tested: 2000 ng/mL),"GK-21D3 (mAb399; mAb417) (antibody, human IgG1, also called GK-21D3 (mAb417); MK-21D3; not shown: TwinStrep tag) heavy: not shown light: DIQLTQSPSSLSASIGDRVTITCRASQGISNYLAWYQQKPGKVPKLLIYAASTLQSGVPSRFSGSGSGTDFTLTISSLQPEDVSTYYCQKYNSAPWTFGQGTKVDIKRTVAAPSVFIFPPSDEQLKSGTASVVCLLNNFYPREAKVQWKVDNALQSGNSQESVTEQDSKDSTYSLSSTLTLSKADYEKHKVYACEVTHQGLSSPVTKSFNRGECGGGGGSLPETG"
